Results reported in patent US20220125845A1 (GUANGDONG TCRCURE BIOPHARMA TECHNOLOGY, published 2022).
Residue numbers refer to the chain shown, from its start.

B1: parent mouse anti-ALPP antibody H17E2 (antibody, V domains shown)
VH: QVQLKESGPGLVAPSQSLSITCTVSGFSLTSYGVSWVRQPPRKGLEWLGVIWEDGSTNYHSALISRLSINKDNSKSQVFLKLNSLQTDDTATYYCAKPHYGSSYVGAMEYWGQGTSVTVSS
VL: DIQMTQSPASLTASVGETVTITCRASENIYSYVAWYQQKQGKSPQFLVYNAKSLAEGVPSRFSGSGSGTQFSLKINSLQPEDFGNYYCQHHYVSPWTFGGGTKLEIK
notes: Mouse monoclonal antibody, detected with goat anti-mouse Fc secondary antibodies; also called A02; A02 antibody
B2: humanized anti-ALPP antibody A05 (antibody, V domains shown)
VH: QVQLKESGPGLVAPSQTLSLTCTVSGFSLTSYGVSWIRQPPGKGLEWIGVIWEDGSTNYHSALISRVSISVDTSKSQFSLKLSSVDAADTAVYYCARPHYGSSYVGAMEYWGQGTTVTVSS
VL: DIQMTQSPSSLSASVGDRVTITCRASENIYSYVAWYQQKPGKAPKFLIYNAKSLAEGVPSRFSGSGSGTDFTLTISSLQPEDFANYYCQHHYVSPWTFGQGTKVEIK
notes: Detected with a goat anti-human secondary antibody; also called A05Ab
B3: humanized anti-ALPP antibody A04 (antibody, V domains shown)
VH: B2 VH with K5Q
VL: B2 VL
notes: Detected with a goat anti-human secondary antibody; also called A04Ab
B4: humanized anti-ALPP antibody A06 (antibody, V domains shown)
VH: B2 VH with R97K
VL: B2 VL with F46L
notes: Detected with a goat anti-human secondary antibody; also called A06Ab
B5: humanized anti-ALPP antibody A07 (antibody, V domains shown)
VH: B2 VH with R97K
VL: B2 VL
notes: Detected with a goat anti-human secondary antibody; also called A07Ab
B6: humanized anti-ALPP antibody A08 (antibody, V domains shown)
VH: B2 VH with K5Q, A13K
VL: B2 VL
notes: Detected with a goat anti-human secondary antibody; also called A08Ab

Experiments:
[1] = target: ALPP on ALPP-positive SiHa cervical cancer cells (UniProt P05187); assay: cell-based or functional assay
[2] = target: T1, ALPP on ALPP-positive SiHa cervical cancer cells (UniProt P05187 23-506, limits assumed); assay: flow cytometry on SiHa cells, AF488 goat anti-mouse IgG (Fcγ specific) secondary
T1 construct: whole, on cells; SiHa cells (ATCC) are called ALPP-positive cervical cancer cells, and ALPP is the target meant; SiHa is a human line; also called PLAP; SiHa cells
Method: (§1) 0.2×10⁶ SiHa cells were incubated with serially diluted anti-ALPP antibodies as described herein. Afterward, an AF488 goat anti-human secondary antibody or an AF488 goat anti-mouse IgG (Fcγ fragment specific) was used to stain the cells. Then, the fluorescently stained cells were detected by flow cytometry. Binding curves and calculated EC₅₀ values are shown in FIG. 10B and the table below, respectively.

[3] = target: T2, ALPP antigen (alkaline phosphatase, placental), coated on ELISA plates (UniProt P05187 23-506, limits assumed); assay: ELISA, plate coated with 125 ng ALPP antigen, biotin goat anti-mouse Fc and streptavidin-HRP, OD450
T2 construct: 125 ng ALPP antigen was coated per plate/well; the general description concerns human ALPP; also called PLAP; placental alkaline phosphatase
Method: (§2) Enzyme-linked immunosorbent assay (ELISA) plates were coated with 125 ng ALPP antigen. After blocking the plates, serial dilutions of anti-ALPP antibodies including A02 (H17E2), A04, A05, A06, A07, A08, A09, or a chimeric antibody were added to corresponding wells. Then, a Biotin-SP-AffiniPure goat anti-human antibody was added to wells containing the humanized antibodies A04, A05, A06, A07, A08, A09, or the chimeric antibody. Meanwhile, a Biotin-SP-AffiniPure goat anti-mouse Fc antibody was added to wells containing the mouse antibody H17E2. Next, HRP-conjugated streptavidin was used for biotin detection. Final detection was accomplished by assessing OD450 after 3,3′,5,5′-Tetramethylbenzidine (TMB) substrate was added. Binding curves and calculated EC₅₀ values are shown in FIG. 10A and the table below, respectively.

[4] = target: T1, ALPP on ALPP-positive SiHa cervical …; assay: flow cytometry on SiHa cells, AF488 goat anti-human secondary
Method: as §1

[5] = target: T2, ALPP antigen (alkaline phosphatase, …); assay: ELISA, plate coated with 125 ng ALPP antigen, biotin goat anti-human and streptavidin-HRP, OD450
Method: as §2

T2 sequence (P05187 23-506 limits assumed): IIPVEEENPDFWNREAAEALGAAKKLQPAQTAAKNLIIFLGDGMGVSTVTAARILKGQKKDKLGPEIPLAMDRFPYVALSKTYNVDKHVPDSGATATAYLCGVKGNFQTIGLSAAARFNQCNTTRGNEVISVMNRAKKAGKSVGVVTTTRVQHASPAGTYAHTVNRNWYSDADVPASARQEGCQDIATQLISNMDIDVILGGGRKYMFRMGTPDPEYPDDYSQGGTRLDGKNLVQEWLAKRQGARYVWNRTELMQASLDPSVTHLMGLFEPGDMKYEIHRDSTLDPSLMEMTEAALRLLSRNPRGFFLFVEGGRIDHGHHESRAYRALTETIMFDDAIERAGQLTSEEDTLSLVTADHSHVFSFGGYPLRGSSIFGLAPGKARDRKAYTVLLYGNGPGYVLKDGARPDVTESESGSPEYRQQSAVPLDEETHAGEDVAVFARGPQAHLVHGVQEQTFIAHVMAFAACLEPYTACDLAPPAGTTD
T1 sequence (P05187 23-506 limits assumed): as above
ALPP on ALPP-positive SiHa cervical cancer cells (UniProt P05187), sequence (P05187 23-506 limits assumed): as above

| Molecule | CD69 expression in CD3+ Jurkat cells (percent activated), overnight co-culture with SiHa cells [1] | EC50 [2] | EC50 [3] | EC50 [4] | EC50 [5] |
| --- | --- | --- | --- | --- | --- |
| A02 CAR (murine H17E2 scFv, CD8 hinge and transmembrane region, 4-1BB, CD3 zeta) | 70 to 80% |  |  |  |  |
| B1 |  | 0.211 µg/mL | 0.0108 µg/mL |  |  |
| B2 |  |  |  | 0.225 µg/mL | 0.00491 µg/mL |
| B3 |  |  |  | 0.286 µg/mL | 0.00589 µg/mL |
| B4 |  |  |  | 0.257 µg/mL | 0.0037 µg/mL |
| B5 |  |  |  | 0.302 µg/mL | 0.00534 µg/mL |
| B6 |  |  |  | 0.233 µg/mL | 0.00481 µg/mL |
